Results from paper PMC10274944.

Target: GST-tagged MERS-CoV papain-like protease (PLpro) (MERS-CoV) (UniProt K9N7C7)
Experiment: BLI

In order of rising Kd:
1. ubiquitin variant A46F-K48E-E64Y-R74N-G75S (UbV5) (from UniProt P0CG48 1-76) (designed binder)  1.48 nM
2. ubiquitin variant A46F-K48E-E64Y (UbV3) (from UniProt P0CG48 1-76) (designed binder)  2.77 nM
3. ubiquitin variant A46F-K48E (UbV2) (from UniProt P0CG48 1-76) (designed binder)  220 nM
4. ubiquitin variant A46F-K48E-G75R (from UniProt P0CG48 1-76) (designed binder)  11400 nM
